Measured values reported in the RNAGym collection of RNA variant scans (doi:10.7554/elife.90254).

B1: LINE1-full (parent)
chain: UACGUAGGUGGUUUUCCCCUGAUAGUGCUAAGGGGGCCUGGAAGUUUGGACUGGGCAGAGCUCAACACAGCGUGGCAAAGUGGCUGUGGCUAGACUGCCUCUCUGGAUUCCUCGUCACUCAGCAGGGCAUCUCUGAGAGAAAUGCC

Variants of: B1
Assay: self-cleavage, relative activity (ratio to wild type); higher = more cleavage; in vitro, sequencing; the parent is a self-cleaving ribozyme

Variant | self-cleavage
UACGUAGGUGGUUUUCCCCUGAUAGUGCUGAGGGGGCCUGGAAGUUUGGACUGGGCAGAGCUCAACACUGCGUGGCAAAGUGGCUGUGGCUAGACUGCCUCUCUGGAUUCCUCGUCACUCAGCAGGGCAUCUCUGAGAGAAAUGCC [A30G A69U] | 0.19
UACGUAGGUGGUUUUCCCCUGAUAGUGCUGAGGGGGCCUGGAAGUUUGGACUGGGCAGAGCUCAACACAGCGUGGCAAAGUGGCUGUGGCUAGACUGCCUCUCUGGUUUCCUCGUCACUCAGCAGGGCAUCUCUGAGAGAAAUGCC [A30G A107U] | 1.71
UACGUAGGUGGUUUUCCCCUGAUAGUGCUGAGGGGGCCUGGAAGUUUGGACUGGGCAGAGCUCAACACAGCGUGGCAAAGUGGCUGUGGCUAGACUGCCUCUCUGGGUUCCUCGUCACUCAGCAGGGCAUCUCUGAGAGAAAUGCC [A30G A107G] | 1.2
UACGUAGGUGGUUUUCCCCUGAUAGUGCUGAGGGGGCCUGGAAGUUUGGACUGGGCAGGGCUCAACACAGCGUGGCAAAGUGGCUGUGGCUAGACUGCCUCUCUGGAUUCCUCGUCACUCAGCAGGGCAUCUCUGAGAGAAAUGCC [A30G A59G] | 0.11
UACGUAGGUGGUUUUCCCCUGAUAGUGCUGAGGGGGCCUGGAAGUUUGGACUGGGCAGAGCUCAACACAGCGUGGCAAAGUGGCUGUGGCUAGACUGCCUCUCUGGAUUCCUCGUCACUCAGCAGGGCGUCUCUGAGAGAAAUGCC [A30G A129G] | 0.72
UACGUAGGUGGUUUUCCCCUGAUAGUGCUGAGGGGGCCUGGAAGUUUGGACUGGGCAGAGCUCAACACAGCGUGGCAAAGUGGCUGUGGCUAGACUGCCUCUCUGGAUUCCUCGUCACUCAGCAGGGCCUCUCUGAGAGAAAUGCC [A30G A129C] | 0
UACGUAGGUGGUUUUCCCCUGAUAGUGCUGAGGGGGCCUGGAAGUUUGGACUGGGCAGAGCUCAACACAGCGUGGCAAAGUGGCUGUGGCUAGACUGCCUCUCUGGAUUCCUCGUCACUCAGCAGGGCAUCUCUGGGAGAAAUGCC [A30G A136G] | 1.23
UACGUAGGUGGUUUUCCCCUGAUAGUGCUGAGGGGGCCUGGAAGUUUGGACUGGGCAGAGCUCAACACAGCGUGGCAAAGUGGCUGUGGCUAGACUGCCUCUCUGGAUUCCUCGUCACUCAGCAGGGCAUCUCUGAGGGAAAUGCC [A30G A138G] | 0.64
UACGUAGGUGGUUUUCCCCUGAUAGUGCUGAGGGGGCCUGGAAGUUUGGACUGGGCAGAGCUCAACACAGCGUGGCAAGGUGGCUGUGGCUAGACUGCCUCUCUGGAUUCCUCGUCACUCAGCAGGGCAUCUCUGAGAGAAAUGCC [A30G A79G] | 1.19
UACGUAGGUGGUUUUCCCCUGAUAGUGCUGAGGGGGCCUGGAAGUUUGGACUGGGCAGAGCUCAACACAGCGUGGCAAUGUGGCUGUGGCUAGACUGCCUCUCUGGAUUCCUCGUCACUCAGCAGGGCAUCUCUGAGAGAAAUGCC [A30G A79U] | 0.5
UACGUAGGUGGUUUUCCCCUGAUAGUGCUGAGGGGGCCUGGAAGUUUGGACUGGGCAGAGCUCAACACAGCGUGGCAAAGUGGCUGUGGCUAGACUGCCUCUCUGGAUUCCUCGUCGCUCAGCAGGGCAUCUCUGAGAGAAAUGCC [A30G A117G] | 0.91
UACGUAGGUGGUUUUCCCCUGAUAGUGCUGAGGGGGCCUGGAAGUUUGGACUGGGCAGAGCUCUACACAGCGUGGCAAAGUGGCUGUGGCUAGACUGCCUCUCUGGAUUCCUCGUCACUCAGCAGGGCAUCUCUGAGAGAAAUGCC [A30G A64U] | 0.65
UACGUAGGUGGUUUUCCCCUGAUAGUGCUGAGGGGGCCUGGAAGUUUGGACUGGGCAGAGCUCCACACAGCGUGGCAAAGUGGCUGUGGCUAGACUGCCUCUCUGGAUUCCUCGUCACUCAGCAGGGCAUCUCUGAGAGAAAUGCC [A30G A64C] | 0.31
UACGUAGGUGGUUUUCCCCUGAUAGUGCUGAGGGGGCCUGGAAGUUUGGACUGGGCAGAGCUCAACACAGCGUGGCAAAGUGGCUGUGGCUAGACUGCCUCUCUGGAUUCCUCGUCACUCAGCAGGGCAUCUCUGAGAGAGAUGCC [A30G A141G] | 1.26
UACGUAGGUGGUUUUCCCCUGAUAGUGCUGAGGGGGCCUGGAAGUUUGGACUGGGCGGAGCUCAACACAGCGUGGCAAAGUGGCUGUGGCUAGACUGCCUCUCUGGAUUCCUCGUCACUCAGCAGGGCAUCUCUGAGAGAAAUGCC [A30G A57G] | 1.39
UACGUAGGUGGUUUUCCCCUGAUAGUGCUGAGGGGGCCUGGAAGUUUGGACUGGGCAGAGCUCAACACAGCGUGGCAAAGUGGCUGUGGCUGGACUGCCUCUCUGGAUUCCUCGUCACUCAGCAGGGCAUCUCUGAGAGAAAUGCC [A30G A92G] | 0
UACGUAGGUGGUUUUCCCCUGAUAGUGCUGAGGGGGCCUGGAAGUUUGGACUGGGCAGAGCUCAACACAGCGUGGCUAAGUGGCUGUGGCUAGACUGCCUCUCUGGAUUCCUCGUCACUCAGCAGGGCAUCUCUGAGAGAAAUGCC [A30G A77U] | 0.71
UACGUAGGUGGUUUUCCCCUGAUAGUGCUGAGGGGGCCUGGAAGUUUGGACUGGGCAGAGCUCAGCACAGCGUGGCAAAGUGGCUGUGGCUAGACUGCCUCUCUGGAUUCCUCGUCACUCAGCAGGGCAUCUCUGAGAGAAAUGCC [A30G A65G] | 0.07
UACGUAGGUGGUUUUCCCCUGAUAGUGCUGAGGGGGCCUGGAAGUUUGGACUGGGCAGAGCUCAACACAGCGUGGCAAAGUGGCUGUGGCUAGACUGCCUCUCUGGAUUCCUCGUCACUCAGCGGGGCAUCUCUGAGAGAAAUGCC [A30G A124G] | 0.91
UACGUAGGUGGUUUUCCCCUGAUAGUGCUGAGGGGGCCUGGAAGUUUGGACUGGGCAGAGCUCAACACAGCGUGGCAAAGUGGCUGUGGCUAGACUGCCUCUCUGGAUUCCUCGUCACUCAGCAGGGCAUCUCUGAGAGGAAUGCC [A30G A140G] | 0.99
